Consider 4 molecules from patent US20060234294A1 (JAPAN SCIENCE AND TECHNOLOGY AGENCY, published 2006).

Common to all, as to assay: co-immunoprecipitation from 293T cells: anti-HA IP, anti-V5 Western blot
On the technique in general: A western blot detects proteins with antibodies after separation by electrophoresis.

The target of assay [1] is T1, Tiam1 with HA tag at its C terminus (PCI Tiam1-HA) (mouse, UniProt Q60610 1-1591, limits assumed).
T1 construct: Expressed in 293T cells from the PCI vector; also called mouse Tiam1
T1 sequence (Q60610 other isoform, or with tags, fused parts or gaps limits assumed): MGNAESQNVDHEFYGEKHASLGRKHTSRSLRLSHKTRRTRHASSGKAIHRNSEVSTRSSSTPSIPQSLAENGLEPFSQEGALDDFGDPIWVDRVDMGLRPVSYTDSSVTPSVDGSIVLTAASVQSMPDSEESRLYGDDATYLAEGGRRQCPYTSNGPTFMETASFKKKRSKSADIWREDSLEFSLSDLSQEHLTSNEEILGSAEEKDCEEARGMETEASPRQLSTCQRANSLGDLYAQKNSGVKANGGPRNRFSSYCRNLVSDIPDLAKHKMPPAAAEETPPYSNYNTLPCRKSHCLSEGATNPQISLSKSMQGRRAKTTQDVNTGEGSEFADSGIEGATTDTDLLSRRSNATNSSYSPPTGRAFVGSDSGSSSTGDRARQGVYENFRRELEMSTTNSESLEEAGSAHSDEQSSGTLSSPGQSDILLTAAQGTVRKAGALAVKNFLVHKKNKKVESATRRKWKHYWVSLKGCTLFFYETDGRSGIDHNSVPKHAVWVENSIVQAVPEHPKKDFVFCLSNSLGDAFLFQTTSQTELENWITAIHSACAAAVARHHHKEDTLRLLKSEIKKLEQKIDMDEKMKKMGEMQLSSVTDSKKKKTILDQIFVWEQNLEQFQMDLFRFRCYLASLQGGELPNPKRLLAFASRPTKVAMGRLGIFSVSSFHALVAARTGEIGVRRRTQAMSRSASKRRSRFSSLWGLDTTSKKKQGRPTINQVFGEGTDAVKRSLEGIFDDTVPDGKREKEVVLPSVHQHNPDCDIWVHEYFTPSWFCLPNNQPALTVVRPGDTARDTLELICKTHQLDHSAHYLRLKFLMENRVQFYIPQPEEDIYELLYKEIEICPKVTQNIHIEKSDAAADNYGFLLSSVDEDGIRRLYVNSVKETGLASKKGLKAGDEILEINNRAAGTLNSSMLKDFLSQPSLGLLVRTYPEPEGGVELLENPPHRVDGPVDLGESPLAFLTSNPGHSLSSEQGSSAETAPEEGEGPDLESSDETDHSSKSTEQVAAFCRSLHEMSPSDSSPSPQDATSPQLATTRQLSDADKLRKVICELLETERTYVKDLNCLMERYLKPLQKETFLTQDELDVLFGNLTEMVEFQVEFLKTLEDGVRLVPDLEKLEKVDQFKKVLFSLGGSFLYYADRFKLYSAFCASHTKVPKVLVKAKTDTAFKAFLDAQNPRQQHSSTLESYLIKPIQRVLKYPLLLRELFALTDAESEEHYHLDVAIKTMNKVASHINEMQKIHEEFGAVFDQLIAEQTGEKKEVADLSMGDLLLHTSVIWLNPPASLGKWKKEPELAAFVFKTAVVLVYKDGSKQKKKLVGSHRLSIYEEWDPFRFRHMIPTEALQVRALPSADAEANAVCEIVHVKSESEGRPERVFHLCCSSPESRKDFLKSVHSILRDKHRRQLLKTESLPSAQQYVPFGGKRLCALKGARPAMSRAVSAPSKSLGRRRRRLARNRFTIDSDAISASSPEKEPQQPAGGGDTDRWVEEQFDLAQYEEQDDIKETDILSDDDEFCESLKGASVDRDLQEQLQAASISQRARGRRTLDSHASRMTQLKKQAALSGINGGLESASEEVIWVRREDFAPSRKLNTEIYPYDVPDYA

Assay [2] concerns the target T2, full length DOCK2 with HA tag at the C terminus (PcDNA DOCK2-HA) (mouse, UniProt Q8C3J5 1-1828).
T2 construct: Expressed in 293T cells from PcDNA/His max vector and tested in cell lysate by co-immunoprecipitation; also called Hch; mouse DOCK2

Assay [3] has as its target T3, DOCK2ΔN-HA (amino acid residue 505-1828 of DOCK2, HA tag at the C terminus) (mouse, UniProt Q8C3J5 505-1828).
T3 construct: Expressed in 293T cells; also called PcDNA DOCK2ΔN-HA

Assay [4] deals with T4, DOCK2 SH3 mutant G32E-HA (mouse, UniProt Q8C3J5 1-1828).
T4 construct: Glycine at position 32 of DOCK2 is substituted to glutamic acid; HA tag at the C terminus; Expressed in 293T cells; also called PcDNA G32E-HA
T4 sequence (Q8C3J5 other isoform, or with tags, fused parts or gaps G32E G32E limits assumed): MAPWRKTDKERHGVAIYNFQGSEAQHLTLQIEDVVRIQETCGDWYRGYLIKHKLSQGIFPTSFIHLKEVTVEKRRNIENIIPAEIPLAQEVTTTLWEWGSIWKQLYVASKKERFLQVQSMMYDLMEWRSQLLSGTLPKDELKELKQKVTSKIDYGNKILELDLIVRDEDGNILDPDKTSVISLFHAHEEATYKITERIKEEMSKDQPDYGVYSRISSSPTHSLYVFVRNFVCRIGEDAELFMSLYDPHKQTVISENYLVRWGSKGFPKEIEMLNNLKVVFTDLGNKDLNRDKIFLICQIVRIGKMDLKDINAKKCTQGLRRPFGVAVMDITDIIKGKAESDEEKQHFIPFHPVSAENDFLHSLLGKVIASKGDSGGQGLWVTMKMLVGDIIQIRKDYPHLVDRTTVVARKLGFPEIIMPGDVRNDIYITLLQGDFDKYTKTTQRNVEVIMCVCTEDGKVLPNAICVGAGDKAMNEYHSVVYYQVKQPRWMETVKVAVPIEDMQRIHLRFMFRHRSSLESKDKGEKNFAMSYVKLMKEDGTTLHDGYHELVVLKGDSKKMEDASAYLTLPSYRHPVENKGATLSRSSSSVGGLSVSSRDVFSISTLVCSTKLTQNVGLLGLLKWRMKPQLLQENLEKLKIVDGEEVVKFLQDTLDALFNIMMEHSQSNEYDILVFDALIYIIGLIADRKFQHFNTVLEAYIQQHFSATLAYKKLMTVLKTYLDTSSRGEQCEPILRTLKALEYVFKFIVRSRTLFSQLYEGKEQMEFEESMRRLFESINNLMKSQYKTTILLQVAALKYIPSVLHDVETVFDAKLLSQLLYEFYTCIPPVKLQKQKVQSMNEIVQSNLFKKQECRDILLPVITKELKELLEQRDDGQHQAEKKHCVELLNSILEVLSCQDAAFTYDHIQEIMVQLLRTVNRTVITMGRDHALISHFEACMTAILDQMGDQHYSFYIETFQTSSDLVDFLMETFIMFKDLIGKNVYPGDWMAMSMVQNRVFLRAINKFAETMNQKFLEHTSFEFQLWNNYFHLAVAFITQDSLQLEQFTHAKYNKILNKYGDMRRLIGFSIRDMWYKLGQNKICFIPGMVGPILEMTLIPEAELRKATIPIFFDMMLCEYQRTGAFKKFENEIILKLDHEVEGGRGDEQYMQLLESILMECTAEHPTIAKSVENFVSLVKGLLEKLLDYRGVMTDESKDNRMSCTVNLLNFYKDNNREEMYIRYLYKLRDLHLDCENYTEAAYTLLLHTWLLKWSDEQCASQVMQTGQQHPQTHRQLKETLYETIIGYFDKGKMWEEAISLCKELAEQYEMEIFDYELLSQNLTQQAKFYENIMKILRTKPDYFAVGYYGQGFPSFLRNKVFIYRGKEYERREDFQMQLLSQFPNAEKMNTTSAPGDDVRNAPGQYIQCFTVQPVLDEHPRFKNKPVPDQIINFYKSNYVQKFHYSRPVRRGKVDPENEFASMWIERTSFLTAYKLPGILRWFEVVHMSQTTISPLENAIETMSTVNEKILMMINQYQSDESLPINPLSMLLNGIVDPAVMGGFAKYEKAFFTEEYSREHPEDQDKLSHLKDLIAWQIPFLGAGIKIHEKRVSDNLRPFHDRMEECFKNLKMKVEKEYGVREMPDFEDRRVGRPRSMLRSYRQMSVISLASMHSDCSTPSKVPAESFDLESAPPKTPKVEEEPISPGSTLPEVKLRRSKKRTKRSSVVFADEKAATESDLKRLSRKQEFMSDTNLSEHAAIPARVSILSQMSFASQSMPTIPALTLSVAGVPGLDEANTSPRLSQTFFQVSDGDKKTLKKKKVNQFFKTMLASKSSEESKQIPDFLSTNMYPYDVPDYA

Assay [5] deals with T5, DOCK2 SH3 mutant P60E-HA (mouse, UniProt Q8C3J5 1-1828).
T5 construct: Proline at position 60 of DOCK2 is substituted to glutamic acid; HA tag at the C terminus; Expressed in 293T cells; also called PcDNA P60E-HA
T5 sequence (Q8C3J5 other isoform, or with tags, fused parts or gaps P60E P60E limits assumed): as the sequence (Q8C3J5 other isoform, or with tags, fused parts or gaps G32E G32E limits assumed) above, with E32G, P60E counted along it

Assay [6] addresses T6, DOCK2 SH3 mutant F63E-HA (mouse, UniProt Q8C3J5 1-1828).
T6 construct: Phenylalanine at position 63 of DOCK2 is substituted to glutamic acid; HA tag at the C terminus; Expressed in 293T cells; also called PcDNA F63E-HA

T6 sequence (Q8C3J5 other isoform, or with tags, fused parts or gaps F63E F63E limits assumed): as the sequence (Q8C3J5 other isoform, or with tags, fused parts or gaps G32E G32E limits assumed) above, with E32G, F63E counted along it
T2 sequence (Q8C3J5 other isoform, or with tags, fused parts or gaps limits assumed): as the sequence (Q8C3J5 other isoform, or with tags, fused parts or gaps G32E G32E limits assumed) above, with E32G counted along it
T3 sequence (Q8C3J5 other isoform, or with tags, fused parts or gaps mutant): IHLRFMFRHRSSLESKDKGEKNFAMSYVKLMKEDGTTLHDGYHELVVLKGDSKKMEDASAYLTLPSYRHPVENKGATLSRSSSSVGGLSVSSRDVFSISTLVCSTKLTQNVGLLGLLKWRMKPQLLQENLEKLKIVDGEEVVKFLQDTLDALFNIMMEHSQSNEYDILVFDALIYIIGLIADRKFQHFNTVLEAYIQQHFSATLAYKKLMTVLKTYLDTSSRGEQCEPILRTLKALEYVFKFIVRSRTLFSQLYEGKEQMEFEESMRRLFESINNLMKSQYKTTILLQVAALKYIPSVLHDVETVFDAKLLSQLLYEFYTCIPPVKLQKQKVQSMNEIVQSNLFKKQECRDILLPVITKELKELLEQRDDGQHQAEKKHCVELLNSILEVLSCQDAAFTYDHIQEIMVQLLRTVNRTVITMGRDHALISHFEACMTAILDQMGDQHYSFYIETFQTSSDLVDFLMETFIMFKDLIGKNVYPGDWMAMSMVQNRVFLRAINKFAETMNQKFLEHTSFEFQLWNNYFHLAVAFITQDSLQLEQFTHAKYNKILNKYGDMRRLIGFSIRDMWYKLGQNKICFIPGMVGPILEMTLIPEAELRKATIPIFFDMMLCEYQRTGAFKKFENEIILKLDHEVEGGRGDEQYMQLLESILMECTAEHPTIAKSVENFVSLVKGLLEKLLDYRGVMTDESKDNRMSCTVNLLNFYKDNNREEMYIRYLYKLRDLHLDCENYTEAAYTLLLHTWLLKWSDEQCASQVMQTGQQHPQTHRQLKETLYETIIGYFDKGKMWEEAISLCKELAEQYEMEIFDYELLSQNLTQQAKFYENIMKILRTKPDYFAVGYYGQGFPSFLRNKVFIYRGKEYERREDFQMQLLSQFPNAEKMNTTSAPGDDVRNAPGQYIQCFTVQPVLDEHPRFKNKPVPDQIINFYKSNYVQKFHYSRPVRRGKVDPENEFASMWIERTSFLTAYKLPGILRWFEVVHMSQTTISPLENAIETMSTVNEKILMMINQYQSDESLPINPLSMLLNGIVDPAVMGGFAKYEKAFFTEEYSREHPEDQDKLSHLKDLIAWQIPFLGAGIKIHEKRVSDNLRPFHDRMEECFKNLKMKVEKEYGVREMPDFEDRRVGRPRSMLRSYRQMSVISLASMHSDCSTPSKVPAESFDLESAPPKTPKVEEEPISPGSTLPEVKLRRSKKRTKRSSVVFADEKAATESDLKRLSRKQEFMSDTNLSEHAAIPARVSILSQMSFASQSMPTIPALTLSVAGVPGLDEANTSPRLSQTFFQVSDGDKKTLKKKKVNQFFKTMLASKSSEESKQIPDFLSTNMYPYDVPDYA

B1: ELMO1-del8-V5 (amino acid residues 345-727 of ELMO1) (other)
chain: MEKRKSMYTRDYKKLGFINHVNPAMDFTQTPPGMLALDNMLYFAKHHQDAYIRIVLENSSREDKHECPFGRSSIELTKMLCEILKVGELPSETCNDFHPMFFTHDRSFEEFFCICIQLLNKTWKEMRATSEDFNKVMQVVKEQVMRALTTKPSSLDQFKSKLQNLSYTEILKIRQSERMNQEDFQSRPILELKEKIQPEILELIKQQRLNRLVEGTCFRKLNARRRQDKFWYCRLSPNHKVLHYGDLEESPQGEVPHDSLQDKLPVADIKAVVTGKDCPHMKEKGALKQNKEVLELAFSILYDSNCQLNFIAPDKHEYCIWTDGLNALLGKDMMSDLTRNDLDTLLSMEIKLRLLDLENIQIPDAPPPIPKEPSNYDFVYDCN
notes: Expressed in 293T cells; also called PcDNA ELMO1-del8-V5; not shown: V5 (and His) tag from the PcDNA V5His vector
With B1, the binding result in assay [1] was “no binding”.

B2: ELMO1-del10-V5 (amino acid residues 1-613 of ELMO1) (other)
chain: MPPPSDIVKVAIEWPGAYPKLMEIDQKKPLSAIIKEVCDGWSLANHEYFALQHADSSNFYITEKNRNEIKNGTILRLTTSPAQNAQQLHERIQSSSMDAKLEALKDLASLSRDVTFAQEFINLDGISLLTQMVESGTERYQKLQKIMKPCFGDMLSFTLTAFVELMDHGIVSWDTFSVAFIKKIASFVNKSAIDISILQRSLAILESMVLNSHDLYQKVAQEITIGQLIPHLQGTDQEIQTYTIAVINALFLKAPDERRQEMANILAQKQLRYIILTHVIRAQRAINNEMAHQLYVLQVLTFNLLEDRMMTKMDPQDQAQRDIIFELRRIAFDAESEPNNSSGSMEKRKSMYTRDYKKLGFINHVNPAMDFTQTPPGMLALDNMLYFAKHHQDAYIRIVLENSSREDKHECPFGRSSIELTKMLCEILKVGELPSETCNDFHPMFFTHDRSFEEFFCICIQLLNKTWKEMRATSEDFNKVMQVVKEQVMRALTTKPSSLDQFKSKLQNLSYTEILKIRQSERMNQEDFQSRPILELKEKIQPEILELIKQQRLNRLVEGTCFRKLNARRRQDKFWYCRLSPNHKVLHYGDLEESPQGEVPHDSLQDKLPVADI
notes: Expressed in 293T cells; also called PcDNA ELMO1-del10-V5; PcDNA ELMO1-del10; not shown: V5 (and His) tag from the PcDNA V5His vector
In the case of B2, in assay [2], the binding result is “no binding”.

B3: full length ELMO1 with V5 tag (PcDNA ELMO1-V5) (other)
chain: MPPPSDIVKVAIEWPGAYPKLMEIDQKKPLSAIIKEVCDGWSLANHEYFALQHADSSNFYITEKNRNEIKNGTILRLTTSPAQNAQQLHERIQSSSMDAKLEALKDLASLSRDVTFAQEFINLDGISLLTQMVESGTERYQKLQKIMKPCFGDMLSFTLTAFVELMDHGIVSWDTFSVAFIKKIASFVNKSAIDISILQRSLAILESMVLNSHDLYQKVAQEITIGQLIPHLQGTDQEIQTYTIAVINALFLKAPDERRQEMANILAQKQLRYIILTHVIRAQRAINNEMAHQLYVLQVLTFNLLEDRMMTKMDPQDQAQRDIIFELRRIAFDAESEPNNSSGSMEKRKSMYTRDYKKLGFINHVNPAMDFTQTPPGMLALDNMLYFAKHHQDAYIRIVLENSSREDKHECPFGRSSIELTKMLCEILKVGELPSETCNDFHPMFFTHDRSFEEFFCICIQLLNKTWKEMRATSEDFNKVMQVVKEQVMRALTTKPSSLDQFKSKLQNLSYTEILKIRQSERMNQEDFQSRPILELKEKIQPEILELIKQQRLNRLVEGTCFRKLNARRRQDKFWYCRLSPNHKVLHYGDLEESPQGEVPHDSLQDKLPVADIKAVVTGKDCPHMKEKGALKQNKEVLELAFSILYDSNCQLNFIAPDKHEYCIWTDGLNALLGKDMMSDLTRNDLDTLLSMEIKLRLLDLENIQIPDAPPPIPKEPSNYDFVYDCN
notes: Expressed in 293T cells; also called mouse ELMO1; not shown: V5 (and His) tag from the PcDNA V5-His vector
Consider B3, for which the binding result in assay [3], in assay [4], in assay [5] and in assay [6] was “no binding” in each case.

B4: ELMO1-del1-V5 (amino acid residues 147-727 of ELMO1) (other)
chain: MKPCFGDMLSFTLTAFVELMDHGIVSWDTFSVAFIKKIASFVNKSAIDISILQRSLAILESMVLNSHDLYQKVAQEITIGQLIPHLQGTDQEIQTYTIAVINALFLKAPDERRQEMANILAQKQLRYIILTHVIRAQRAINNEMAHQLYVLQVLTFNLLEDRMMTKMDPQDQAQRDIIFELRRIAFDAESEPNNSSGSMEKRKSMYTRDYKKLGFINHVNPAMDFTQTPPGMLALDNMLYFAKHHQDAYIRIVLENSSREDKHECPFGRSSIELTKMLCEILKVGELPSETCNDFHPMFFTHDRSFEEFFCICIQLLNKTWKEMRATSEDFNKVMQVVKEQVMRALTTKPSSLDQFKSKLQNLSYTEILKIRQSERMNQEDFQSRPILELKEKIQPEILELIKQQRLNRLVEGTCFRKLNARRRQDKFWYCRLSPNHKVLHYGDLEESPQGEVPHDSLQDKLPVADIKAVVTGKDCPHMKEKGALKQNKEVLELAFSILYDSNCQLNFIAPDKHEYCIWTDGLNALLGKDMMSDLTRNDLDTLLSMEIKLRLLDLENIQIPDAPPPIPKEPSNYDFVYDCN
notes: Expressed in 293T cells; also called ELMO1-dell; PcDNA ELMO1-del1-V5; not shown: V5 (and His) tag from the PcDNA V5His vector
Turning to B4, the binding result in assay [1] is reported as “no binding”.
